Measured values: patent publication US20220306705A1
Changes are numbered by the printed parent chain.

T1: Factor G β-subunit β2 (Limulus polyphemus)
T1 sequence: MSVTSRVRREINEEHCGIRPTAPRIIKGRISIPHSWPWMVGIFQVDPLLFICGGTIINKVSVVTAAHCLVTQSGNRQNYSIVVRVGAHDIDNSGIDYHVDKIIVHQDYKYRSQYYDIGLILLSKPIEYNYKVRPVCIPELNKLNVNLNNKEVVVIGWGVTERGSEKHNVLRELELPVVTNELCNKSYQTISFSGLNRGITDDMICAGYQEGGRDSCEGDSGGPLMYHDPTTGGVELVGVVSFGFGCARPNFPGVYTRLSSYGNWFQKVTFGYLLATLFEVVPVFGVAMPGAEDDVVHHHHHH

T2: Factor G β-subunit β5 (Limulus polyphemus)
T2 sequence: T1 sequence with H167Y, G233R

T3: Factor G β-subunit βC1 (Limulus polyphemus)
T3 sequence: T1 sequence with Y79S, P125R, H167Y, G233R

T4: Factor G β-subunit βC2 (Limulus polyphemus)
T4 sequence: T1 sequence with G233R

T5: Factor G β-subunit βi2 (Limulus polyphemus)
T5 sequence: T1 sequence with Y79S, P125R, G233R

T6: Factor G β-subunit βi3 (Limulus polyphemus)
T6 sequence: T1 sequence with Y79S, H167Y, G233R

T7: Tachypleus Factor G β-subunit (Tachypleus (paragraph 383 prints 'Tachypleus polyphemus'; paragraph 8 prints Tachypleus tridentatus)) (UniProt Q27083)
T7 sequence (looked up): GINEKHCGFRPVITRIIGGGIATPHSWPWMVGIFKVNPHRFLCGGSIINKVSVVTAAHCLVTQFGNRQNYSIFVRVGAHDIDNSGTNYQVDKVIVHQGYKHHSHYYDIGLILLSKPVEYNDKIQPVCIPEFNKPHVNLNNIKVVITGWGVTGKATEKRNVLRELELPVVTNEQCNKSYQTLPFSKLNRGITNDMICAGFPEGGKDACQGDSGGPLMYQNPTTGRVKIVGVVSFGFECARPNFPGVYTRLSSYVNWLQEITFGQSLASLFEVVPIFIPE

B1: Factor G α-subunit A (protein)
chain: EPKWKLVWSDEFTNGISSDWEFETGNGPNGWGNNELQYYRRENTRVEGGKLIITAKEEDYEGFRYTSAKLKTQFNKPWKDGKIEARMSIPSFRGVWVAFWMLGDITDTDSWPSSGEIDFEEHINTNNEVRGTIHWSTSDDADTLHGRGTNTDYHIYSVEWNSSVIRWFVDGNQYFEVNIQRGATGTNAFHNNVFVILNMAIGGNWPGFNVADEAFPANMYVDYVRVYQDANTPSPVDVTHLSGYYFLQNRHSELYLDVSGSSNEDGAFLQQWPYSGNANQQFDFVHLGNKVYKIINKNSGKSLDVYELGTDNGVRIQQWSYGGGYNQQFIVQDVGDGYYKIFARSTGKLVEVADLNKDPGGKIQQWSDDGQLSGQWKLIRNKANSKLIQAESYFASSKVQLEDTSDVGGGKNVKCDNEGAWMAYKDINFPSSGTYQVEYRVASERAGGMLSLDLNAGSIVLGMLNVPSTGGLQKWTTISHTVNVSSGTYNLGISVQRPGWNINWINITKVSSQLKSIPSTNSRVIQAESYFDSSKVQLEDTSDVGGGKNVKCDTKGAWMAYKDINFPSSGSYQIEYRVASERAGGKLSLDLNAGSIVLGMLDVPSTGGWQKWTTISHTVKVDSGTYNLGIYVQQPGWNINWIKITKV
B2: Factor G α-subunit (AB547712) derived from Limulus polyphemus (protein)
chain: SQEPKWKLVWSDEFTNGISSDWEFETGNGPNGWGNNELQYYRRENTRVEGGKLIITAKEEDYEGFRYTSAKLKTQFNKPWKDGKIEARMSIPSFRGVWVAFWMLGDITDTDSWPSSGEIDFEEHINTNNEVRGTIHWSTSDDADTLHGRGTNTDYHIYSVEWNSSVIRWFVDGNQYFDVNIQRGATGTNAFHNNVFVILNMAIGGNWPGFNVADEAFPANMYVDYVRVYQDANTPSPVDVTHLSGYYFLQNRHSELYLDVSGSSNEDGAFLQQWPYSGNANQQFDFVHLGNKVYKIINKNSGKSLDVYELGTDNGVRIQQWSYGGGYNQQFIVQDVGDGYYKIFARSTGKLVEVADLNKDPGGKIQQWSDDGQLSGQWKLIRNKANSKLIQAESYFASSKVQLEDTSDVGGGKNVKCDNEGAWMAYKDINFPSSGTYQVEYRVASERAGGMLSLDLNAGSIVLGMLNVPSTGGLQKWTTISHTVNVSSGTYNLGISVQRPGWNINWINITKVSSQLKSIPSTNSRVIQAESYFDSSKVQLEDTSDVGGGKNVKCDTKGAWMAYKDINFPSSGSYQIEYRVASERAGGKLSLDLNAGSIVLGMLDVPSTGGWQKWTTISHTVKVDSGTYNLGIYVQQPGWNINWIKITKV
B3: Factor G α-subunit B (protein)
chain: TNWKLVWSDEFTNGISSDWEFETGNGPNGWGNNELQYYRRENARVEGGKLIITAKKEDYEGFRYTSAKLKTQFNKPWKDGKIEARMSIPSFRGVWVAFWMLGDITDTDSWPSSGEIDFKEHINTNNEVRGTIHWSTSDGAHTHHGRGTNTDYHIYSVEWNSSVIRWFVDGNQYFEVNIQRGATGTNAFHNKVFVILNMAIGGNWPGFNVADEAFPANMYVDYVRVYQDANTPSPVDVDVTDLSGYYFLQNRHSELYLDVSFSSNKDGAFLQQWPYNGNANQQFDFVHLGNNIYKITNKNSGKSLDVYNVGTENGVRIQQMPYRGSYNQQFIVQDVGDGYYKIFARNSRKLVEVADFNKDPGGKIQQWSDDGQISGQWKLIRNKVNSKVIQAESYFASLGVQLEDTSDVGGGKNVKCDTEGAWMAYKDINFPSSGSYQVEYRVASERAGGKLSLDLNAGSIVLGMLNVPSTGGWQKWTTISHTVKVDSGTYNLGIYVQRPRWNINWIKITEAPGQSKPIQRSDTDSKVIQAESYFASSKVQLEDTSDVGGGKNVKCDNEGAWMAYKDINFPSSGSYQIEYRVASERAGGKLSLDLNAGSIVLGMLDVPSTGGWQKWTTISHTVNVSSGTYNLGIYVQRAAWNINWIKITKV
B4: Tachypleus Factor G α-subunit (protein)
chain: SHEPKWQLVWSDEFTNGISSDWEFEMGNGLNGWGNNELQYYRRENAQVEGGKLVITAKREDYDGFKYTSARLKTQFDKSWKYGKIEAKMAIPSFRGVWVMFWMSGDNTNYVRWPSSGEIDFIEHRNTNNEKVRGTIHWSTPDGAHAHHNRESNTNGIDYHIYSVEWNSSIVKWFVNGNQYFEVKIQGGVNGKSAFRNKVFVILNMAIGGNWPGFDVADEAFPAKMYIDYVRVYQDASTSSPVGDTSLDGYYFVQNRHSELYLDVTDASNEDGAFLQQWSYSGNENQQFDFEHLENNVYKITNKKSGKSLDVYNFGTENGVRIQQWSYGGARNQQFTVQSVGDGYYKIIPRGSGKLVEVADFSKDAGGKIQQWSDNNQLSGQWKLIKSKSYSKLIQAESYFDSSKVQLEDTSDVGGGKNVKCDNEGAWMAYKDIDFPSSGNYRIEYRVASERAGGKLSLDLNAGSIVLGMLDVPSTGGWQKWTTISHTVNVDSGTYNLGIYVQRASWNINWIKITKIPEQSNLNQGRRNSKLIQAESYFSYSEVQLEDTLDVGGGKNVKCDKEGAWMAYKDIDFPSSGSYRVEYRVASERAGGKLSLDLNAGSIVLGMLDIPSTGGLQKWTTISHIVNVDLGTYNLGIYVQKASWNINWIRITKV

Legend:
Assay in all cases: cell-based or functional assay
[1] = target: T1, Factor G β-subunit β2 (Limulus polyphemus)
[2] = target: T2, Factor G β-subunit β5 (Limulus polyphemus)
[3] = target: T3, Factor G β-subunit βC1 (Limulus polyphemus)
[4] = target: T4, Factor G β-subunit βC2 (Limulus polyphemus)
[5] = target: T5, Factor G β-subunit βi2 (Limulus polyphemus)
[6] = target: T6, Factor G β-subunit βi3 (Limulus polyphemus)
[7] = target: T7, Tachypleus Factor G β-subunit (Tachypleus (paragraph 383 prints 'Tachypleus polyphemus'; paragraph 8 prints Tachypleus tridentatus))

| Binder | glucan-dependent protease activity of the coexpressed product: blank difference in absorbance (405 nm / 492 nm) with vs without LNT; grade A >0.1, B <=0.1 and >0.01, C <=0.01 and >0, D =0 (absorbance difference) [1] | glucan-dependent protease activity of the coexpressed product: blank difference in absorbance (405 nm / 492 nm) with vs without LNT; grade A >0.1, B <=0.1 and >0.01, C <=0.01 and >0, D =0 (absorbance difference) [2] | glucan-dependent protease activity of the coexpressed product: blank difference in absorbance (405 nm / 492 nm) with vs without LNT; grade A >0.1, B <=0.1 and >0.01, C <=0.01 and >0, D =0 (absorbance difference) [3] | glucan-dependent protease activity of the coexpressed product: blank difference in absorbance (405 nm / 492 nm) with vs without LNT; grade A >0.1, B <=0.1 and >0.01, C <=0.01 and >0, D =0 (absorbance difference) [4] | glucan-dependent protease activity of the coexpressed product: blank difference in absorbance (405 nm / 492 nm) with vs without LNT; grade A >0.1, B <=0.1 and >0.01, C <=0.01 and >0, D =0 (absorbance difference) [5] | glucan-dependent protease activity of the coexpressed product: blank difference in absorbance (405 nm / 492 nm) with vs without LNT; grade A >0.1, B <=0.1 and >0.01, C <=0.01 and >0, D =0 (absorbance difference) [6] | glucan-dependent protease activity of the coexpressed product: blank difference in absorbance (405 nm / 492 nm) with vs without LNT; grade D = blank difference equal to 0 (legend given for Table 13) (absorbance difference) [7] |
| --- | --- | --- | --- | --- | --- | --- | --- |
| B1 | < 0.01 | < 0.1 | < 0.1 | < 0.01 | 0.1 | 0.1 | – |
| B2 | 0 | 0 | 0 | 0 | 0 | 0 | – |
| B3 | 0.1 | 0 | 0 | < 0.1 | 0 | < 0.01 | – |
| B4 | – | – | – | – | – | – | 0 |
